Substrate in data set [1]: N[C@@H](CO)C(=O)O
In words: Tryptophan formation from L-serine and indole, kinetics of wild-type PfTrpB. It counts as biochemical, Pyrococcus furiosus. The note with it: other: 75° C., pH 8.0. As for the experimental part: (§1) Cloning, Expression, and Purification of PfTrpA and PfTrpB. The genes encoding PfTrpB (UNIPROT ID Q8U093) and PfTrpA (UNIPROT ID Q8U094) were obtained as gBlocks and cloned into pET22(b)+ for expression in E. coli BL21 E. cloni EXPRESS cells (Lucigen). Heterologous protein expression of PfTrpA and PfTrpB was performed in Terrific Broth with 100 μg/mL ampicillin (TBamp) and induced with 500 mM IPTG (final concentration 1 mM). PfTrpB was purified via a HisTrap HP column. PfTrpA was purified via a Q HP HiTrap column (flow-through), followed by ammonium sulfate precipitation, and hydrophobic interaction chromatography on a phenyl Sepharose HP HiTrap column (FIG. 3).
(§2) Kinetics and UV-Vis Spectroscopy. Data were collected between 550 and 250 nm on a UV1800 Shimadzu spectrophotometer (Shimadzu) using 0.25-20 μM of enzyme in 200 mM potassium phosphate (pH 8.0) in a quartz cuvette. Samples were incubated at 75° C. for >3 min to ensure a stable temperature was reached. PfTrpB activity (kcat) was measured by monitoring tryptophan formation at 290 nm using Δe290=1.89 mM^−1·cm^−1.
(§3) Selection of the Parent Enzyme, TrpB, from Pyrococcus furiosus. […]

Substrate in data set [2]: c1ccc2[nH]ccc2c1
Described as above. It counts as biochemical, Pyrococcus furiosus. The following applies: other: 75° C., pH 8.0. As for the experimental part: as §1, §2, §3

Substrate in data set [3]: N[C@@H](CO)C(=O)O
In words: Tryptophan formation from L-serine and indole, kinetics of PfTrpS complex. The format is biochemical, Pyrococcus furiosus. The note with it: other: 75° C., pH 8.0.

Substrate in data set [4]: N[C@@H](CO)C(=O)O
In words: purified protein, by the assay type. The following applies: other: 75° C., pH 8.0.

Substrate in data set [5]: c1ccc2[nH]ccc2c1
Nature of the data set: purified protein, by the assay type. The note with it: pH 8.0.

Substrate in data set [6]: N[C@@H](CO)C(=O)O
Nature of the data set: Tryptophan formation from L-serine and indole, kinetics of PfTrpB^2G9. It counts as biochemical, Pyrococcus furiosus. The following applies: other: 75° C., pH 8.0.

Substrate in data set [7]: N[C@@H](CO)C(=O)O
Nature of the data set: Tryptophan formation from L-serine and indole, kinetics of PfTrpB^4D11. The following applies: other: 75° C., pH 8.0. It counts as biochemical, Pyrococcus furiosus.

B1: Pyrococcus furiosus tryptophan synthase beta-subunit PfTrpB, wild type, SEQ ID NO: 2 (Pyrococcus furiosus DSM 3638) (protein)
chain: MWFGEFGGQYVPETLIEPLKELEKAYKRFKDDEEFNRQLNYYLKTWAGRPTPLYYAKRLTEKIGGAKIYLKREDLVHGGAHKTNNAIGQALLAKFMGKTRLIAETGAGQHGVATAMAGALLGMKVDIYMGAEDVERQKMNVFRMKLLGANVIPVNSGSRTLKDAINEALRDWVATFEYTHYLIGSVVGPHPYPTIVRDFQSVIGREAKAQILEAEGQLPDVIVACVGGGSNAMGIFYPFVNDKKVKLVGVEAGGKGLESGKHSASLNAGQVGVFHGMLSYFLQDEEGQIKPTHSIAPGLDYPGVGPEHAYLKKIQRAEYVTVTDEEALKAFHELSRTEGIIPALESAHAVAYAMKLAKEMSRDEIIIVNLSGRGDKDLDIVLKVSGNVLEHHHHHH
For B1, the results for the Km in data set [1] and in data set [2] were 1.2 ± 0.1 mM and 77 ± 12 µM, respectively.

B2: Pyrococcus furiosus tryptophan synthase complex PfTrpS (PfTrpA + PfTrpB) (Pyrococcus furiosus DSM 3638) (protein)
chain: MWFGEFGGQYVPETLIEPLKELEKAYKRFKDDEEFNRQLNYYLKTWAGRPTPLYYAKRLTEKIGGAKIYLKREDLVHGGAHKTNNAIGQALLAKFMGKTRLIAETGAGQHGVATAMAGALLGMKVDIYMGAEDVERQKMNVFRMKLLGANVIPVNSGSRTLKDAINEALRDWVATFEYTHYLIGSVVGPHPYPTIVRDFQSVIGREAKAQILEAEGQLPDVIVACVGGGSNAMGIFYPFVNDKKVKLVGVEAGGKGLESGKHSASLNAGQVGVFHGMLSYFLQDEEGQIKPTHSIAPGLDYPGVGPEHAYLKKIQRAEYVTVTDEEALKAFHELSRTEGIIPALESAHAVAYAMKLAKEMSRDEIIIVNLSGRGDKDLDIVLKVSGNVLEHHHHHH
For the protein B2, in data set [3], the Km – broadly, the substrate concentration at which the rate is half of its maximum – stood at 0.6 mM.

B3: Pyrococcus furiosus TrpB variant PfTrpB^0B2 (P12L, E17G, I68V, T292S, F274S, T321A), SEQ ID NO: 12 (Pyrococcus furiosus DSM 3638; … (protein)
chain: MWFGEFGGQYVLETLIGPLKELEKAYKRFKDDEEFNRQLNYYLKTWAGRPTPLYYAKRLTEKIGGAKVYLKREDLVHGGAHKTNNAIGQALLAKFMGKTRLIAETGAGQHGVATAMAGALLGMKVDIYMGAEDVERQKMNVFRMKLLGANVIPVNSGSRTLKDAINEALRDWVATFEYTHYLIGSVVGPHPYPTIVRDFQSVIGREAKAQILEAEGQLPDVIVACVGGGSNAMGIFYPFVNDKKVKLVGVEAGGKGLESGKHSASLNAGQVGVSHGMLSYFLQDEEGQIKPSHSIAPGLDYPGVGPEHAYLKKIQRAEYVAVTDEEALKAFHELSRTEGIIPALESAHAVAYAMKLAKEMSRDEIIIVNLSGRGDKDLDIVLKVSGNVLEHHHHHH
For the protein B3, the Km in data set [4] is 0.7 mM; in data set [5] (other: 75° C.) it was 8.7 µM.

B4: Pyrococcus furiosus TrpB variant M144T N166D (Table 6 prints N166T), SEQ ID NO: 20 (Pyrococcus furiosus DSM 3638; M144T/N166D) (protein)
chain: MWFGEFGGQYVPETLIEPLKELEKAYKRFKDDEEFNRQLNYYLKTWAGRPTPLYYAKRLTEKIGGAKIYLKREDLVHGGAHKTNNAIGQALLAKFMGKTRLIAETGAGQHGVATAMAGALLGMKVDIYMGAEDVERQKMNVFRTKLLGANVIPVNSGSRTLKDAIDEALRDWVATFEYTHYLIGSVVGPHPYPTIVRDFQSVIGREAKAQILEAEGQLPDVIVACVGGGSNAMGIFYPFVNDKKVKLVGVEAGGKGLESGKHSASLNAGQVGVFHGMLSYFLQDEEGQIKPTHSIAPGLDYPGVGPEHAYLKKIQRAEYVTVTDEEALKAFHELSRTEGIIPALESAHAVAYAMKLAKEMSRDEIIIVNLSGRGDKDLDIVLKVSGNVLEHHHHHH
For the protein B4, the Km in data set [5] (other: 75° C.) worked out at 42 µM.

B5: Pyrococcus furiosus TrpB variant PfTrpB^2G9 (T292S), SEQ ID NO: 10 (Pyrococcus furiosus DSM 3638; T292S) (protein)
chain: MWFGEFGGQYVPETLIEPLKELEKAYKRFKDDEEFNRQLNYYLKTWAGRPTPLYYAKRLTEKIGGAKIYLKREDLVHGGAHKTNNAIGQALLAKFMGKTRLIAETGAGQHGVATAMAGALLGMKVDIYMGAEDVERQKMNVFRMKLLGANVIPVNSGSRTLKDAINEALRDWVATFEYTHYLIGSVVGPHPYPTIVRDFQSVIGREAKAQILEAEGQLPDVIVACVGGGSNAMGIFYPFVNDKKVKLVGVEAGGKGLESGKHSASLNAGQVGVFHGMLSYFLQDEEGQIKPSHSIAPGLDYPGVGPEHAYLKKIQRAEYVTVTDEEALKAFHELSRTEGIIPALESAHAVAYAMKLAKEMSRDEIIIVNLSGRGDKDLDIVLKVSGNVLEHHHHHH
With B5, in data set [6], the Km was 0.84 mM.

B6: Pyrococcus furiosus TrpB variant PfTrpB^4D11 (E17G, I68V, T292S, F274S, T321A), SEQ ID NO: 16 (Pyrococcus furiosus DSM 3638; E17G/F274S/I68V/T292S/T321A) (protein)
chain: MWFGEFGGQYVPETLIGPLKELEKAYKRFKDDEEFNRQLNYYLKTWAGRPTPLYYAKRLTEKIGGAKVYLKREDLVHGGAHKTNNAIGQALLAKFMGKTRLIAETGAGQHGVATAMAGALLGMKVDIYMGAEDVERQKMNVFRMKLLGANVIPVNSGSRTLKDAINEALRDWVATFEYTHYLIGSVVGPHPYPTIVRDFQSVIGREAKAQILEAEGQLPDVIVACVGGGSNAMGIFYPFVNDKKVKLVGVEAGGKGLESGKHSASLNAGQVGVSHGMLSYFLQDEEGQIKPSHSIAPGLDYPGVGPEHAYLKKIQRAEYVAVTDEEALKAFHELSRTEGIIPALESAHAVAYAMKLAKEMSRDEIIIVNLSGRGDKDLDIVLKVSGNVLEHHHHHH
For the protein B6, the Km in data set [7] was found to be 1.2 mM.

B7: Thermotoga maritima TrpB variant TmTrpB^0B2 (P14L, P19G, I69V, L274S, T292S) (Thermotoga maritima MSB8; I69V/L274S/P14L/P19G/T292S) (protein)
chain: MKGYFGPYGGQYVLEILMGALEELEAAYEEIMKDESFWKEFNDLLRDYAGRPTPLYFARRLSEKYGARVYLKREDLLHTGAHKINNAIGQVLLAKKMGKTRIIAETGAGQHGVATATAAALFGMECVIYMGEEDTIRQKPNVERMKLLGAKVVPVKSGSRTLKDAINEALRDWITNLQTTYYVIGSVVGPHPYPIIVRNFQKVIGEETKKQILEKEGRLPDYIVACVGGGSNAAGIFYPFIDSGVKLIGVEAGGEGLETGKHAASLLKGKIGYSHGSKTFVLQDDWGQVQVSHSVSAGLDYSGVGPEHAYWRETGKVLYDAVTDEEALDAFIELSRLEGIIPALESSHALAYLKKINIKGKVVVVNLSGRGDKDLESVLNHPYVRERIRLEHHHHHH
For the protein B7, the Km in data set [5] (other: 75° C.) turned out to be 72 µM.

B8: Archaeoglobus fulgidus TrpB variant AfTrpB^0B2 (P25L, E30G, I80V, F285S, T303S, T332A), SEQ ID NO: 22 (Archaeoglobus fulgidus DSM 4304; … (protein)
chain: MRCWLENLSGGRKMKFGEFGGRFVLEVLIGPLEELEKAYDRFKDDEEFKARLEYYLKSYAGRPTPLYFAENLSRELGVKVYLKREDLLHGGAHKINNTIGQALLAKFMGKKRVIAETGAGQHGVATAMAAALLGLEAEIYMGAEDYERQKMNVFRMELLGAKVTAVESGSRTLKDAINEALRDWVESFEHTHYLIGSVVGPHPFPTIVRDFQAVIGKEARRQIIEAEGGMPDAIIACVGGGSNAMGIFHPFLNDDVRLIGVEAGGEGIESGRHSASLTAGSKGVSHGMLSYFLQDEEGMMLDSHSVSAGLDYPGVGPEHAYLKETGRCEYVAVNDEEALRAFKTLSKLEGIIPALESAHAIAYAMKMAEEMQRDDVLVVNLSGRGDKDMDIVRRRLALEHHHHHH
Turning to B8, the Km in data set [5] (other: 60° C.) was determined as 4.8 µM.
